Molecular target: IL-7 receptor (IL-7R), mouse (mouse) (UniProt P16872)
Test: cell-based or functional assay

Chain of UniProt P16872 (P16872 21-459, chain 1 of 2): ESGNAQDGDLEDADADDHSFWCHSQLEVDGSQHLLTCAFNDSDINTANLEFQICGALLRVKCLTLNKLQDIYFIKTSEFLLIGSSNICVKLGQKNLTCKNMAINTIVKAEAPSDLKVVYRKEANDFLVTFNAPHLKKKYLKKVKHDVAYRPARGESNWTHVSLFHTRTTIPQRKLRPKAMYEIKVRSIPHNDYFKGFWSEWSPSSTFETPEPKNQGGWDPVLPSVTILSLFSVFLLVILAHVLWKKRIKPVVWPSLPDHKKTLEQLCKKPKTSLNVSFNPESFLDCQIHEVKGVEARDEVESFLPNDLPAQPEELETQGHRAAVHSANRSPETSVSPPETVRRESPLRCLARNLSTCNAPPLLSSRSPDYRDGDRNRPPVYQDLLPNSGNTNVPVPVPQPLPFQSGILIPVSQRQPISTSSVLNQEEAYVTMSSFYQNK
Chain of UniProt P16872 (P34902 23-369, chain 2 of 2, further chain): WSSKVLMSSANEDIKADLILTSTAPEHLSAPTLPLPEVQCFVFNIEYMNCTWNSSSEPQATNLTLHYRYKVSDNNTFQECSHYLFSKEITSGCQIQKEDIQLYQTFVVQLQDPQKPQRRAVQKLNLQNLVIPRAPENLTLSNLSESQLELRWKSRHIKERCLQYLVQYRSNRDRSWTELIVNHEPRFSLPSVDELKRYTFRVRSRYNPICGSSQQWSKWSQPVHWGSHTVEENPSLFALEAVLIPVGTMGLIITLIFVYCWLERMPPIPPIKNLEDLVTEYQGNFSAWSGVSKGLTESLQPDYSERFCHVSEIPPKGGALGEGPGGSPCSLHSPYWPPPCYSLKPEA

Substance: recombinant mouse IL-7 (from UniProt P10168 26-154) (ligand)
- percentage of cells positive for pSTAT5 (flow cytometry / ImageStream), WT CD4+ T cells, 30 minutes of culture with IL-7: > 71%
- percentage of cells positive for pSTAT5 (flow cytometry / ImageStream), mir-142-/- CD4+ T cells, 30 minutes of culture with IL-7: 8.7%

Source: patent US20140288149A1
